Test results published in patent publication US20250145711A1 (Janssen / Centocor, published 2025).

Key:
[1] = target: T1, Human CD3 epsilon (CD3ε), on primary human pan T cells (human, UniProt P07766 23-207); assay: cell-based or functional assay
[2] = target: T1, Human CD3 epsilon (CD3ε), on primary …; assay: cell-based or functional assay; remark: listed apart in the source
[3] = target: T1, Human CD3 epsilon (CD3ε), on primary …; assay: flow cytometry on human T cells, anti-human IgG Fc A647 detection
Protocol: The bsAbs were assayed for their abilities bind T cells and to induce T-cell mediated cytotoxicity against H929 cells (ATCC@CRL-9068™). […] Stain buffer with no antibody was added to bottom 4 wells and assign as background control (secondary antibody alone). Parental Cris7b, CD3B695 (bivalent mAb controls) and CD3B375 (bsAb which was monovalent for Cris-7b) were added also with full dose-response curves.
Frozen T-cells were thawed in a 37° C. water bath and transferred gently into conical tube containing warm 5 mL media (RPMI+10% FBS)/1 vial of 1×10⁶ cells. Cells were mixed and centrifuged for 5 minutes at 400×g followed by resuspension in flow staining buffer, and counted and viability checked. Cells were then plated in 50 uL/50,000 cells/well into assay plates. Assay positive control mAb was added in the first column in quadruplicates at 2× at 20 nM in the bottom 4 wells. Stain buffer with no mAb was added to the top 4 wells and assigned as background controls (secondary antibody alone). Serially diluted antibody samples were added at 50 uL/well using Intergra Viaflo according to the attached plate maps and incubated for 1 hr at 37° C. After one hour incubation, 150 uL staining buffer were added to all wells, and cells were spun at 500×g for 5 minutes to pellet cells. Cells were then washed prior to addition of Alexa Fluor 647 (A647) conjugated anti human IgG Fc specific secondary detection antibody at 2 ug/mL in staining buffer. Secondary detection antibody was added at 50 uL/well to the washed cells. Plates were covered with foil and incubated for 30 minutes on ice or in the fridge. 150 uL staining buffer were added to all wells, and cells were spun at 500×g for 5 min to pellet cells. Cells were resuspended in 20 uL running buffer containing 1:1000 dilution of SYTOX™ green dead cell stain and run plates on iQue® Screener flow cytometer (Essen BioScience, Inc.). Briefly, cells were gated on FCS vs. SCS dot plot to eliminate debris. Singlets were gated on SCS-A vs SCS-H dot plot and from singlet population, live cells gated choosing BL1 channel for low/negative with SYTOX™ green viability stain (Thermo Fisher).

T1 sequence (P07766 23-207 limits assumed): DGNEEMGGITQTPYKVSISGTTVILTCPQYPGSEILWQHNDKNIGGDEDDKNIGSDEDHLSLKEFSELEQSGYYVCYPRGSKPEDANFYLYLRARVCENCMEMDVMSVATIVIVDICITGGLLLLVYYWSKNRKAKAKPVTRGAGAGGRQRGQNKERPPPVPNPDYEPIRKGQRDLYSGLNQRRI

B1: BC3B51 (bispecific antibody, human IgG1, kappa, L234A L235A)
chain: QVQLVQSGAEVKKPGSSVKVSCKASGYTFTRSTMHWVKQAPGQGLEWIGYINPSSAYTNYNQKFQGRVTLTADKSTSTAYMELSSLRSEDTAVYYCASPQVHYDYQGFPYWGQGTLVTVSSGGSEGKSSGSGSESKSTGGSEIVLTQSPATLSASPGERVTLSCSASSSVSYMNWYQQKPGQAPRRWIYDSSKLASGVPARFSGSGSGRDYTLTISSLEPEDFAVYYCQQWSRNPPTFGGGTKVEIKEPKSSDKTHTCPPCPAPEAAGGPSVFLFPPKPKDTLMISRTPEVTCVVVSVSHEDPEVKFNWYVDGVEVHNAKTKPREEQYNSTYRVVSVLTVLHQDWLNGKEYKCKVSNKALPAPIEKTISKAKGQPREPQVYVYPPSREEMTKNQVSLTCLVKGFYPSDIAVEWESNGQPENNYKTTPPVLDSDGSFALVSKLTVDKSRWQQGNVFSCSVMHEALHNHYTQKSLSLSPG
heavy: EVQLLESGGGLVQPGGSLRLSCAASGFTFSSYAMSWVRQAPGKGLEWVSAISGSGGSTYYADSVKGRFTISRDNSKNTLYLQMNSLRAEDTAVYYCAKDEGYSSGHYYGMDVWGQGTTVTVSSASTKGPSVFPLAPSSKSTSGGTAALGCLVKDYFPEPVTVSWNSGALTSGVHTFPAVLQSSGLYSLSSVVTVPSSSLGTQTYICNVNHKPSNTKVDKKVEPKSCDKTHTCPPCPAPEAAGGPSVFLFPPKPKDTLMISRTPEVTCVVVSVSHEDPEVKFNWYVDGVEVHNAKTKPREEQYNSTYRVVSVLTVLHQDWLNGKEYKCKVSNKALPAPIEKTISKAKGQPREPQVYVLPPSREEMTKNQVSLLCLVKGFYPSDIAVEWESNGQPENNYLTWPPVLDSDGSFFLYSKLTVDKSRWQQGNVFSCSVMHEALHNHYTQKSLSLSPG
light: EIVLTQSPGTLSLSPGERATLSCRASQSISSSFLTWYQQKPGQAPRLLIYGASSRATGIPDRFSGGGSGTDFTLTISRLEPEDFAVYYCQHYGSSPMYTFGQGTKLEIKRTVAAPSVFIFPPSDEQLKSGTASVVCLLNNFYPREAKVQWKVDNALQSGNSQESVTEQDSKDSTYSLSSTLTLSKADYEKHKVYACEVTHQGLSSPVTKSFNRGEC
notes: IgG1 BCMAxCD3; HC1: CD3B2030-N106Q HL scFv-Fc; also called BC3B51.001; B2030 HL NtoQ
- H929 Killing EC50 [1]: 0.0129 nM
- EC50, Cytotoxicity [2]: 0.0278 nM
- EC50 [3]: 1.9 nM

B2: BC3B103 (bispecific antibody, human IgG1, kappa, L234A L235A)
chain: QVQLVQSGAEVKKPGSSVKVSCKASGYTFTRSTMHWVKQAPGQGLEWIGYINPSSAYTNYNQKFQGRVTLTADKSTSTAYMELSSLRSEDTAVYYCASPQVHYDYAGFPYWGQGTLVTVSSGGSEGKSSGSGSESKSTGGSEIVLTQSPATLSASPGERVTLSCSASSSVSYMNWYQQKPGQAPRRWIYDSSKLASGVPARFSGSGSGRDYTLTISSLEPEDFAVYYCQQWSRNPPTFGGGTKVEIKEPKSSDKTHTCPPCPAPEAAGGPSVFLFPPKPKDTLMISRTPEVTCVVVSVSHEDPEVKFNWYVDGVEVHNAKTKPREEQYNSTYRVVSVLTVLHQDWLNGKEYKCKVSNKALPAPIEKTISKAKGQPREPQVYVYPPSREEMTKNQVSLTCLVKGFYPSDIAVEWESNGQPENNYKTTPPVLDSDGSFALVSKLTVDKSRWQQGNVFSCSVMHEALHNHYTQKSLSLSPG
heavy: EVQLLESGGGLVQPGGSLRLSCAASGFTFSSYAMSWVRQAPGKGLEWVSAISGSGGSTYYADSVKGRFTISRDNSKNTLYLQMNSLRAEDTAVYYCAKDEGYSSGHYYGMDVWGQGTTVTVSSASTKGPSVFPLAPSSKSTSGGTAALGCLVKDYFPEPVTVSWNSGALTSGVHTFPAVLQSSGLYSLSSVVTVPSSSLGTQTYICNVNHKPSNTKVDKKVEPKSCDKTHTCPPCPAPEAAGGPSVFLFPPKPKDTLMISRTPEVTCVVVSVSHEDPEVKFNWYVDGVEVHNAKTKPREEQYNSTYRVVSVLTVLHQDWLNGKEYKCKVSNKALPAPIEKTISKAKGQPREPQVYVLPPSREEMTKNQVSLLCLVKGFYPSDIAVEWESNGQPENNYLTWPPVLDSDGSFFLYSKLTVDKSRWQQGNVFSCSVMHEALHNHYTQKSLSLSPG
light: EIVLTQSPGTLSLSPGERATLSCRASQSISSSFLTWYQQKPGQAPRLLIYGASSRATGIPDRFSGGGSGTDFTLTISRLEPEDFAVYYCQHYGSSPMYTFGQGTKLEIKRTVAAPSVFIFPPSDEQLKSGTASVVCLLNNFYPREAKVQWKVDNALQSGNSQESVTEQDSKDSTYSLSSTLTLSKADYEKHKVYACEVTHQGLSSPVTKSFNRGEC
notes: IgG1 BCMAxCD3; HC1: CD3B2030-N106A HL scFv-Fc; also called BC3B103.001; B2030 HL NtoA
- H929 Killing EC50 [1]: 0.0921 nM
- EC50, Cytotoxicity [2]: 0.0921 nM
- EC50 [3]: 4.6 nM

B3: BC3B104 (bispecific antibody, human IgG1, kappa, L234A L235A)
chain: QVQLVQSGAEVKKPGSSVKVSCKASGYTFTRSTMHWVKQAPGQGLEWIGYINPSSAYTNYNQKFQGRVTLTADKSTSTAYMELSSLRSEDTAVYYCASPQVHYDYGGFPYWGQGTLVTVSSGGSEGKSSGSGSESKSTGGSEIVLTQSPATLSASPGERVTLSCSASSSVSYMNWYQQKPGQAPRRWIYDSSKLASGVPARFSGSGSGRDYTLTISSLEPEDFAVYYCQQWSRNPPTFGGGTKVEIKEPKSSDKTHTCPPCPAPEAAGGPSVFLFPPKPKDTLMISRTPEVTCVVVSVSHEDPEVKFNWYVDGVEVHNAKTKPREEQYNSTYRVVSVLTVLHQDWLNGKEYKCKVSNKALPAPIEKTISKAKGQPREPQVYVYPPSREEMTKNQVSLTCLVKGFYPSDIAVEWESNGQPENNYKTTPPVLDSDGSFALVSKLTVDKSRWQQGNVFSCSVMHEALHNHYTQKSLSLSPG
heavy: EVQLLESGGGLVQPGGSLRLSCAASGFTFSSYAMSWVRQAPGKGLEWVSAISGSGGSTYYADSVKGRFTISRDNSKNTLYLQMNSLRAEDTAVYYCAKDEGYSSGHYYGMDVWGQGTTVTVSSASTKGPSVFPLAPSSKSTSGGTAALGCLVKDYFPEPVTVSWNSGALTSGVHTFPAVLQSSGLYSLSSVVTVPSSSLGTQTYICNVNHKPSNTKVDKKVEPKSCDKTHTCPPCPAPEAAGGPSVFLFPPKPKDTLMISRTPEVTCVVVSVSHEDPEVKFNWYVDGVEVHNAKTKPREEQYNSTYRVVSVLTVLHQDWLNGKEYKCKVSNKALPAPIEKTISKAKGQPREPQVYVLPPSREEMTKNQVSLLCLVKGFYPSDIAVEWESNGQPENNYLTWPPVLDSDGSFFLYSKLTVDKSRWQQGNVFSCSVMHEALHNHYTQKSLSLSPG
light: EIVLTQSPGTLSLSPGERATLSCRASQSISSSFLTWYQQKPGQAPRLLIYGASSRATGIPDRFSGGGSGTDFTLTISRLEPEDFAVYYCQHYGSSPMYTFGQGTKLEIKRTVAAPSVFIFPPSDEQLKSGTASVVCLLNNFYPREAKVQWKVDNALQSGNSQESVTEQDSKDSTYSLSSTLTLSKADYEKHKVYACEVTHQGLSSPVTKSFNRGEC
notes: IgG1 BCMAxCD3; HC1: CD3B2030-N106G HL scFv-Fc; also called BC3B104.001; B2030 HL NtoG
- H929 Killing EC50 [1]: 0.237 nM
- EC50, Cytotoxicity [2]: 0.237 nM
- EC50 [3]: 64.2 nM

B4: BC3B105 (bispecific antibody, human IgG1, kappa, L234A L235A)
chain: QVQLVQSGAEVKKPGSSVKVSCKASGYTFTRSTMHWVKQAPGQGLEWIGYINPSSAYTNYNQKFQGRVTLTADKSTSTAYMELSSLRSEDTAVYYCASPQVHYDYSGFPYWGQGTLVTVSSGGSEGKSSGSGSESKSTGGSEIVLTQSPATLSASPGERVTLSCSASSSVSYMNWYQQKPGQAPRRWIYDSSKLASGVPARFSGSGSGRDYTLTISSLEPEDFAVYYCQQWSRNPPTFGGGTKVEIKEPKSSDKTHTCPPCPAPEAAGGPSVFLFPPKPKDTLMISRTPEVTCVVVSVSHEDPEVKFNWYVDGVEVHNAKTKPREEQYNSTYRVVSVLTVLHQDWLNGKEYKCKVSNKALPAPIEKTISKAKGQPREPQVYVYPPSREEMTKNQVSLTCLVKGFYPSDIAVEWESNGQPENNYKTTPPVLDSDGSFALVSKLTVDKSRWQQGNVFSCSVMHEALHNHYTQKSLSLSPG
heavy: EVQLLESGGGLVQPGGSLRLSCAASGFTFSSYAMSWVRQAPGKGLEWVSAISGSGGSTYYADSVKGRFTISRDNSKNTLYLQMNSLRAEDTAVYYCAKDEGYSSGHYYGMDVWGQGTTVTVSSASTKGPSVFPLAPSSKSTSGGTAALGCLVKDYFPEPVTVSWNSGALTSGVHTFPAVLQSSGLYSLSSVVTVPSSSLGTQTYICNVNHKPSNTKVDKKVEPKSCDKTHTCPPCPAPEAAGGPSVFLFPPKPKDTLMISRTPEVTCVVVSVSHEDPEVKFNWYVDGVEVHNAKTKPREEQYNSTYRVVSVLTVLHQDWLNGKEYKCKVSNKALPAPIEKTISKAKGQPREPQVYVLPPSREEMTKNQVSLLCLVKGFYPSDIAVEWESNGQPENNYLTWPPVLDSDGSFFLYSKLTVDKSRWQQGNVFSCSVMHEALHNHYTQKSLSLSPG
light: EIVLTQSPGTLSLSPGERATLSCRASQSISSSFLTWYQQKPGQAPRLLIYGASSRATGIPDRFSGGGSGTDFTLTISRLEPEDFAVYYCQHYGSSPMYTFGQGTKLEIKRTVAAPSVFIFPPSDEQLKSGTASVVCLLNNFYPREAKVQWKVDNALQSGNSQESVTEQDSKDSTYSLSSTLTLSKADYEKHKVYACEVTHQGLSSPVTKSFNRGEC
notes: IgG1 BCMAxCD3; HC1: CD3B2030-N106S HL scFv-Fc; also called BC3B105.001; B2030 HL NtoS
- H929 Killing EC50 [1]: 0.172 nM
- EC50, Cytotoxicity [2]: 0.172 nM
- EC50 [3]: 20.7 nM

B5: BC3B107 (bispecific antibody, human IgG1, kappa, L234A L235A)
chain: QVQLVQSGAEVKKPGSSVKVSCKASGYTFTRSTMHWVKQAPGQGLEWMGYINPSSAYTNYNQKFQGRVTLTADKSTSTAYMELSSLRSEDTAVYYCASPQVHYDYAGFPYWGQGTLVTVSSGGSEGKSSGSGSESKSTGGSEIVLTQSPATLSASPGERVTLSCSASSSVSYMNWYQQKPGQAPRRLIYDSSKLASGVPARFSGSGSGRDYTLTISSLEPEDFAVYYCQQWSRNPPTFGGGTKVEIKEPKSSDKTHTCPPCPAPEAAGGPSVFLFPPKPKDTLMISRTPEVTCVVVSVSHEDPEVKFNWYVDGVEVHNAKTKPREEQYNSTYRVVSVLTVLHQDWLNGKEYKCKVSNKALPAPIEKTISKAKGQPREPQVYVYPPSREEMTKNQVSLTCLVKGFYPSDIAVEWESNGQPENNYKTTPPVLDSDGSFALVSKLTVDKSRWQQGNVFSCSVMHEALHNHYTQKSLSLSPG
heavy: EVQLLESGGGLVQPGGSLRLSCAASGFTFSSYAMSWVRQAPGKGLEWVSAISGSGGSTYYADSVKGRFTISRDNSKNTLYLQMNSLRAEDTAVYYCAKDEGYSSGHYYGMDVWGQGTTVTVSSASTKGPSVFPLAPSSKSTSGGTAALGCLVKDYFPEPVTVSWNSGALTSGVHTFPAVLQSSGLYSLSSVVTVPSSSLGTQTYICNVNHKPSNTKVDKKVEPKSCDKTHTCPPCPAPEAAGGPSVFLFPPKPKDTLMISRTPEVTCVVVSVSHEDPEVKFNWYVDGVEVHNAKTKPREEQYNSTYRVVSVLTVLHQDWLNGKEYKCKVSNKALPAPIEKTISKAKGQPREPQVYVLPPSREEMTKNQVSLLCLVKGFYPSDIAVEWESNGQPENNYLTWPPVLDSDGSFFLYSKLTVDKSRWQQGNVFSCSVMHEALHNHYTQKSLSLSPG
light: EIVLTQSPGTLSLSPGERATLSCRASQSISSSFLTWYQQKPGQAPRLLIYGASSRATGIPDRFSGGGSGTDFTLTISRLEPEDFAVYYCQHYGSSPMYTFGQGTKLEIKRTVAAPSVFIFPPSDEQLKSGTASVVCLLNNFYPREAKVQWKVDNALQSGNSQESVTEQDSKDSTYSLSSTLTLSKADYEKHKVYACEVTHQGLSSPVTKSFNRGEC
notes: IgG1 BCMAxCD3; HC1: CD3B2051-N106A HL scFv-Fc; also called BC3B107.001; B2051 HL NtoA
- H929 Killing EC50 [1]: 0.0415 nM
- EC50, Cytotoxicity [2]: 0.0415 nM
- EC50 [3]: 8.6 nM

B6: BC3B108 (bispecific antibody, human IgG1, kappa, L234A L235A)
chain: QVQLVQSGAEVKKPGSSVKVSCKASGYTFTRSTMHWVKQAPGQGLEWMGYINPSSAYTNYNQKFQGRVTLTADKSTSTAYMELSSLRSEDTAVYYCASPQVHYDYGGFPYWGQGTLVTVSSGGSEGKSSGSGSESKSTGGSEIVLTQSPATLSASPGERVTLSCSASSSVSYMNWYQQKPGQAPRRLIYDSSKLASGVPARFSGSGSGRDYTLTISSLEPEDFAVYYCQQWSRNPPTFGGGTKVEIKEPKSSDKTHTCPPCPAPEAAGGPSVFLFPPKPKDTLMISRTPEVTCVVVSVSHEDPEVKFNWYVDGVEVHNAKTKPREEQYNSTYRVVSVLTVLHQDWLNGKEYKCKVSNKALPAPIEKTISKAKGQPREPQVYVYPPSREEMTKNQVSLTCLVKGFYPSDIAVEWESNGQPENNYKTTPPVLDSDGSFALVSKLTVDKSRWQQGNVFSCSVMHEALHNHYTQKSLSLSPG
heavy: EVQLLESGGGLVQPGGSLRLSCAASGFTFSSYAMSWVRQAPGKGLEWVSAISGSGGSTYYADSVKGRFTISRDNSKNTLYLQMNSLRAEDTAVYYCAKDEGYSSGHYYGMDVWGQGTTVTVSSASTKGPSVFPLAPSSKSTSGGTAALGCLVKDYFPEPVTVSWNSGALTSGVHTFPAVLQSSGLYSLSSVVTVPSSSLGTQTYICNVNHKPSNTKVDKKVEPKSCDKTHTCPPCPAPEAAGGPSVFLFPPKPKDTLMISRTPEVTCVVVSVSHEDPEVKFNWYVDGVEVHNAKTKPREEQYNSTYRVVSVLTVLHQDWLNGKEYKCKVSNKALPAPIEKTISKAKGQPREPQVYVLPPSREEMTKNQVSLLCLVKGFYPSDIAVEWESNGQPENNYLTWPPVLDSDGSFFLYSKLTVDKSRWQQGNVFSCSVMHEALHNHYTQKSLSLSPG
light: EIVLTQSPGTLSLSPGERATLSCRASQSISSSFLTWYQQKPGQAPRLLIYGASSRATGIPDRFSGGGSGTDFTLTISRLEPEDFAVYYCQHYGSSPMYTFGQGTKLEIKRTVAAPSVFIFPPSDEQLKSGTASVVCLLNNFYPREAKVQWKVDNALQSGNSQESVTEQDSKDSTYSLSSTLTLSKADYEKHKVYACEVTHQGLSSPVTKSFNRGEC
notes: IgG1 BCMAxCD3; HC1: CD3B2051-N106G HL scFv-Fc; also called BC3B108.001; B2051 HL NtoG
- H929 Killing EC50 [1]: 0.0853 nM
- EC50, Cytotoxicity [2]: 0.0853 nM
- EC50 [3]: 11 nM

B7: BC3B109 (bispecific antibody, human IgG1, kappa, L234A L235A)
chain: QVQLVQSGAEVKKPGSSVKVSCKASGYTFTRSTMHWVKQAPGQGLEWMGYINPSSAYTNYNQKFQGRVTLTADKSTSTAYMELSSLRSEDTAVYYCASPQVHYDYQGFPYWGQGTLVTVSSGGSEGKSSGSGSESKSTGGSEIVLTQSPATLSASPGERVTLSCSASSSVSYMNWYQQKPGQAPRRLIYDSSKLASGVPARFSGSGSGRDYTLTISSLEPEDFAVYYCQQWSRNPPTFGGGTKVEIKEPKSSDKTHTCPPCPAPEAAGGPSVFLFPPKPKDTLMISRTPEVTCVVVSVSHEDPEVKFNWYVDGVEVHNAKTKPREEQYNSTYRVVSVLTVLHQDWLNGKEYKCKVSNKALPAPIEKTISKAKGQPREPQVYVYPPSREEMTKNQVSLTCLVKGFYPSDIAVEWESNGQPENNYKTTPPVLDSDGSFALVSKLTVDKSRWQQGNVFSCSVMHEALHNHYTQKSLSLSPG
heavy: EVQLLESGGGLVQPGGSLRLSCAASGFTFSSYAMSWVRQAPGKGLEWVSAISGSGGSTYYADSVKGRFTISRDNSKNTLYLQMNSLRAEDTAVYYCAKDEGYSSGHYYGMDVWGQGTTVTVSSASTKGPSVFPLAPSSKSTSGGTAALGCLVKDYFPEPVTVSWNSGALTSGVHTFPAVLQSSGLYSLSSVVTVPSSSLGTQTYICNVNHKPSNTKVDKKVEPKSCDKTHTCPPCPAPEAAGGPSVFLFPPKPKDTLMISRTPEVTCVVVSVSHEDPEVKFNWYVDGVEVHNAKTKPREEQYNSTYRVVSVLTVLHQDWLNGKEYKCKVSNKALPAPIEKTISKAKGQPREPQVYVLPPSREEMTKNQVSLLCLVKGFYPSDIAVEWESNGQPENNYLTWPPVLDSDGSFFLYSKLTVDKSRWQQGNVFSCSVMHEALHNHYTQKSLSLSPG
light: EIVLTQSPGTLSLSPGERATLSCRASQSISSSFLTWYQQKPGQAPRLLIYGASSRATGIPDRFSGGGSGTDFTLTISRLEPEDFAVYYCQHYGSSPMYTFGQGTKLEIKRTVAAPSVFIFPPSDEQLKSGTASVVCLLNNFYPREAKVQWKVDNALQSGNSQESVTEQDSKDSTYSLSSTLTLSKADYEKHKVYACEVTHQGLSSPVTKSFNRGEC
notes: IgG1 BCMAxCD3; HC1: CD3B2051-N106Q HL scFv-Fc; also called BC3B109.001; B2051 HL NtoQ
- H929 Killing EC50 [1]: 0.0426 nM
- EC50, Cytotoxicity [2]: 0.0426 nM
- EC50 [3]: 13.8 nM
